Biological target: the molecule itself
Experiment: cross-linking

B1: CstR (CsoR-like sulfurtransferase repressor), wild type, Staphylococcus aureus strain Newman (natural protein, UniProt Q9XBC0 1-86, looked up)
chain: MNYDKKMINRINRIQGQLNGIIKMMEEGKDCKDVITQISASKSSLQRLMGIIISENLIECVKVAADDEESSQELINEAVNLLVKSK
- stoichiometry N: 2

Reference: article PMC4264537 (Molecular microbiology, 2014)
